In this series the target is FabR_vc (N-terminal His6) (Vibrio cholerae, UniProt Q9KVJ2 1-213). Nature of the series: EMSA.

Two molecules from publication PMC4072462 can be followed below.

B1: fabAec B+D (dsDNA)
DNA 1: TTTATTCCGAACTGATCGGACTTGTTCAGCGTACACGTGTTAGCTATCCTGCGTGC
DNA 2: GCACGCAGGATAGCTAACACGTGTACGCTGAACAAGTCCGATCAGTTCGGAATAAA
Regarding B1, the binding result is “binds”.

B2: fabBec B+D (dsDNA)
DNA 1: TCTATTAAATGGCTGATCGGACTTGTTCGGCGTACAAGTGTACGCTATTGTGCATTC
DNA 2: GAATGCACAATAGCGTACACTTGTACGCCGAACAAGTCCGATCAGCCATTTAATAGA
With B2, the binding result was “binds”.
